Data taken from article PMC10397247.

Experiments:
[1] = target: T1, 4H3056-AA; experiment: two-hybrid library CCmax;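 also: natural log of median RNA to DNA barcode read ratio; higher means stronger binding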
T1 chain: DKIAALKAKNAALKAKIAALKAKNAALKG

[2] = target: T2, 4H3133-AA; experiment: two-hybrid library CCmax; settings: mean of both orientations;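 also: natural log of median RNA to DNA barcode read ratio; higher means stronger binding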
T2 chain: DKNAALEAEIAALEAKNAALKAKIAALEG

[3] = target: T3, 4H3162-AA; experiment: two-hybrid library CCmax; settings: mean of both orientations;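 also: natural log of median RNA to DNA barcode read ratio; higher means stronger binding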
T3 chain: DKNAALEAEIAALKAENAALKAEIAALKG

[4] = target: T4, 4H32-AA; experiment: two-hybrid library CCmax; settings: mean of both orientations;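 also: natural log of median RNA to DNA barcode read ratio; higher means stronger binding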
T4 chain: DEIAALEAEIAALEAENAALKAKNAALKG

[5] = target: T5, 4H3378-AA; experiment: two-hybrid library CCmax; settings: mean of both orientations;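 also: natural log of median RNA to DNA barcode read ratio; higher means stronger binding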
T5 chain: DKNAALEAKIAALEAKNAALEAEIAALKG

[6] = target: T6, 4H340-AA; experiment: two-hybrid library CCmax; settings: mean of both orientations;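 also: natural log of median RNA to DNA barcode read ratio; higher means stronger binding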
T6 chain: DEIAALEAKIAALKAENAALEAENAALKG

[7] = target: T7, 4H3413-AA; experiment: two-hybrid library CCmax; settings: mean of both orientations
T7 chain: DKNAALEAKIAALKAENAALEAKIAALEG

[8] = target: T8, 4H3588-AA; experiment: two-hybrid library CCmax; settings: mean of both orientations
T8 chain: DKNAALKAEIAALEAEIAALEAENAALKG

[9] = target: T9, 4H3590-AA; experiment: two-hybrid library CCmax
T9 chain: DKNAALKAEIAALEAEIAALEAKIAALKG

[10] = target: T10, 4H3606-AA; experiment: two-hybrid library CCmax; settings: mean of both orientations
T10 chain: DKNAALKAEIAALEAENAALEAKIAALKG

[11] = target: T11, 4H3631-AA; experiment: two-hybrid library CCmax; settings: mean of both orientations
T11 chain: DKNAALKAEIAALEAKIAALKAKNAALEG

[12] = target: T12, 4H3697-AA; experiment: two-hybrid library CCmax; settings: mean of both orientations
T12 chain: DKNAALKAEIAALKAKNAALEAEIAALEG

[13] = target: T13, 4H3718-AA; experiment: two-hybrid library CCmax; settings: mean of both orientations
T13 chain: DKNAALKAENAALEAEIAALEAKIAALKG

[14] = target: T14, 4H384-AA; experiment: two-hybrid library CCmax; settings: mean of both orientations
T14 chain: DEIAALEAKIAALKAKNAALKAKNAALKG

[15] = target: T15, 4H3865-AA; experiment: two-hybrid library CCmax; settings: mean of both orientations
T15 chain: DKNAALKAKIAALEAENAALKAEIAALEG

[16] = target: T16, 4H697-AA; experiment: two-hybrid library CCmax; settings: mean of both orientations
T16 chain: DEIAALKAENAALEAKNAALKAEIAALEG

[17] = target: T17, 4H982-AA; experiment: two-hybrid library CCmax; settings: mean of both orientations
T17 chain: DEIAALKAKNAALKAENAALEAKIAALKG

[18] = target: T18, Core_ININ-es_EEEE; experiment: two-hybrid library CCmax; settings: mean of both orientations
T18 chain: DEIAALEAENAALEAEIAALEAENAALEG

[19] = target: T19, Core_IIII-es_KKEK; experiment: two-hybrid library CCmax; settings: mean of both orientations
T19 chain: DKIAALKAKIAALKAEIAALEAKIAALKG

[20] = target: T20, P4; experiment: two-hybrid library CCmax; settings: mean of both orientations
T20 chain: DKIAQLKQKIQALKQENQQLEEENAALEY

[21] = target: T21, P4S; experiment: two-hybrid library CCmax; settings: mean of both orientations
T21 chain: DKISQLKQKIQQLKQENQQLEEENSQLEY

[22] = target: T22, Core_IIII-es_KEKE; experiment: two-hybrid library CCmax; settings: mean of both orientations
T22 chain: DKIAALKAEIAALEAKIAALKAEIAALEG

[23] = target: T23, 4H1081-bH; experiment: two-hybrid library CCNG1; settings: mean of both orientations
T23 chain: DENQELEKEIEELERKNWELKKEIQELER

[24] = target: T24, 4H112-bH; experiment: two-hybrid library CCNG1
T24 chain: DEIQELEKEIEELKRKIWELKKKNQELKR

[25] = target: T25, 4H1158-bH; experiment: two-hybrid library CCNG1
T25 chain: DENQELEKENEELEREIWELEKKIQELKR

[26] = target: T26, 4H118-bH; experiment: two-hybrid library CCNG1
T26 chain: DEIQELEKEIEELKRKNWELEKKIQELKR

[27] = target: T27, 4H1348-bH; experiment: two-hybrid library CCNG1
T27 chain: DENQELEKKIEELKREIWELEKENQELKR

[28] = target: T28, 4H1373-bH; experiment: two-hybrid library CCNG1
T28 chain: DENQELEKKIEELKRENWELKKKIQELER

[29] = target: T29, 4H1544-bH; experiment: two-hybrid library CCNG1
T29 chain: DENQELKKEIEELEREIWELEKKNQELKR

[30] = target: T30, 4H170-bH; experiment: two-hybrid library CCNG1
T30 chain: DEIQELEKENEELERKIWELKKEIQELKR

[31] = target: T31, 4H1710-bH; experiment: two-hybrid library CCNG1
T31 chain: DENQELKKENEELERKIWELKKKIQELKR

[32] = target: T32, 4H1831-bH; experiment: two-hybrid library CCNG1
T32 chain: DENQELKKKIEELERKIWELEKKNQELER

[33] = target: T33, 4H1899-bH; experiment: two-hybrid library CCNG1
T33 chain: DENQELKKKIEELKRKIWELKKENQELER

[34] = target: T34, 4H1985-bH; experiment: two-hybrid library CCNG1
T34 chain: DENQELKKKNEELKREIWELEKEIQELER

[35] = target: T35, 4H2586-bH; experiment: two-hybrid library CCNG1
T35 chain: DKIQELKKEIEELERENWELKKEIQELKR

[36] = target: T36, 4H2627-bA; experiment: two-hybrid library CCNG1
T36 chain: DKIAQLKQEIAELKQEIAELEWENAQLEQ

[37] = target: T37, 4H2627-bH; experiment: two-hybrid library CCNG1
T37 chain: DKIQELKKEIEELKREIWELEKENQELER

[38] = target: T38, 4H2673-bH; experiment: two-hybrid library CCNG1
T38 chain: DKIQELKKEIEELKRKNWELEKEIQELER

[39] = target: T39, 4H2702-bH; experiment: two-hybrid library CCNG1
T39 chain: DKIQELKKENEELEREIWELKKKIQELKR

[40] = target: T40, 4H2717-bA; experiment: two-hybrid library CCNG1
T40 chain: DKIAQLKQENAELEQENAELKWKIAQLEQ

[41] = target: T41, 4H3010-bH; experiment: two-hybrid library CCNG1
T41 chain: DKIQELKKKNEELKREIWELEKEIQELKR

[42] = target: T42, 4H3112-bH; experiment: two-hybrid library CCNG1
T42 chain: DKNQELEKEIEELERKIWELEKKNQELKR

[43] = target: T43, 4H3162-bH; experiment: two-hybrid library CCNG1
T43 chain: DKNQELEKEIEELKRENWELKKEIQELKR

[44] = target: T44, 4H3175-bH; experiment: two-hybrid library CCNG1
T44 chain: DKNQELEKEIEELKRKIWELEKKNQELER

[45] = target: T45, 4H3277-bH; experiment: two-hybrid library CCNG1
T45 chain: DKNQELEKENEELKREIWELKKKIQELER

[46] = target: T46, 4H3298-bH; experiment: two-hybrid library CCNG1
T46 chain: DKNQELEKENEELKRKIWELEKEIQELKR

[47] = target: T47, 4H3427-bH; experiment: two-hybrid library CCNG1
T47 chain: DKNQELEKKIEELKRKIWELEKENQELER

[48] = target: T48, 4H346-bH; experiment: two-hybrid library CCNG1
T48 chain: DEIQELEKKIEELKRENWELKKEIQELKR

[49] = target: T49, 4H3462-bH; experiment: two-hybrid library CCNG1
T49 chain: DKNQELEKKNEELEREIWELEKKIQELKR

[50] = target: T50, 4H3497-bH; experiment: two-hybrid library CCNG1
T50 chain: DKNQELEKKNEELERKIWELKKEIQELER

[51] = target: T51, 4H3613-bH; experiment: two-hybrid library CCNG1
T51 chain: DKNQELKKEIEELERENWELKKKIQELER

[52] = target: T52, 4H3628-bH; experiment: two-hybrid library CCNG1
T52 chain: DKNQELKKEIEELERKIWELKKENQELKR

[53] = target: T53, 4H3926-bH; experiment: two-hybrid library CCNG1; settings: mean of both orientations
T53 chain: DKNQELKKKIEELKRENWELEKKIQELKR

[54] = target: T54, 4H4073-bH; experiment: two-hybrid library CCNG1
T54 chain: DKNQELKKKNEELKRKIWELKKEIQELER

[55] = target: T55, 4H457-bH; experiment: two-hybrid library CCNG1
T55 chain: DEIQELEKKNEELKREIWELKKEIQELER

[56] = target: T56, 4H575-bH; experiment: two-hybrid library CCNG1
T56 chain: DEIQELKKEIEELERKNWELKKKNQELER

[57] = target: T57, 4H591-bH; experiment: two-hybrid library CCNG1
T57 chain: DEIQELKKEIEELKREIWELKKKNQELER

[58] = target: T58, 4H626-bH; experiment: two-hybrid library CCNG1
T58 chain: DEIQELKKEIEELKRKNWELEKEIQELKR

[59] = target: T59, 4H683-bH; experiment: two-hybrid library CCNG1
T59 chain: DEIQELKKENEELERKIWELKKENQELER

[60] = target: T60, 4H754-bH; experiment: two-hybrid library CCNG1
T60 chain: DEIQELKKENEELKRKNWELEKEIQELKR

[61] = target: T61, 4H780-bH; experiment: two-hybrid library CCNG1
T61 chain: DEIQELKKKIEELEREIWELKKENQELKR

[62] = target: T62, 4H797-bH; experiment: two-hybrid library CCNG1
T62 chain: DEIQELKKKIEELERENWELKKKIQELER

[63] = target: T63, 4H855-bH; experiment: two-hybrid library CCNG1
T63 chain: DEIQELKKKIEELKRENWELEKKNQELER

[64] = target: T64, 4H906-bH; experiment: two-hybrid library CCNG1
T64 chain: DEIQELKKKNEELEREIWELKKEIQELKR

[65] = target: T65, 4H918-bH; experiment: two-hybrid library CCNG1
T65 chain: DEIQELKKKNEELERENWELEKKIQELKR

[66] = target: T66, 4H953-bH; experiment: two-hybrid library CCNG1
T66 chain: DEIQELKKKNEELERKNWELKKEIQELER

[67] = target: T67, 4H953-bN; experiment: two-hybrid library CCNG1
T67 chain: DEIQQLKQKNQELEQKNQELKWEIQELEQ

[68] = target: T68, 4H968-bH; experiment: two-hybrid library CCNG1
T68 chain: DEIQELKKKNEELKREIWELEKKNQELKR

[69] = target: T69, O6-bS; experiment: two-hybrid library CCNG1
T69 chain: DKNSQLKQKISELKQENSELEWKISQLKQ

## DKIAALKAKNAALKAKIAALKAKNAALKG [4H3056-AA]
[1]
  interaction score: -1.79
[2]
  interaction score: -0.786
[3]
  interaction score: -1.58
[4]
  interaction score: -1.08
[5]
  interaction score: -1.09
[6]
  interaction score: -1.52
[7]
  interaction score: -0.103
[8]
  interaction score: -0.439
[9]
  interaction score: -0.167
[10]
  interaction score: 0.58
[11]
  interaction score: -1.74
[12]
  interaction score: -0.53
[13]
  interaction score: -0.69
[14]
  interaction score: -1.93
[15]
  interaction score: 0.0241
[16]
  interaction score: -1.44
[17]
  interaction score: -1.65
[18]
  interaction score: 1.52

## DEIAALEAEIAALEAKIAALKAEIAALEG [Core_IIII-es_EEKE]
[19]
  interaction score: 2.36

## DEIQQLEEEISQLEQKNSQLKEKNQQLKY [P3S]
[20]
  interaction score: 0.472
[21]
  interaction score: 0.00696

## DEIAALEAKIAALKAEIAALEAKIAALKG [Core_IIII-es_EKEK]
[22]
  interaction score: 1.11

## DENQELEKEIEELERKNWELKKEIQELER [4H1081-bH]
[23]
  interaction score: -1.95
[24]
  interaction score: -1.77
[25]
  interaction score: 0.0141
[26]
  interaction score: -1.07
[27]
  interaction score: -1.51
[28]
  interaction score: -1.35
[29]
  interaction score: -1.4
[30]
  interaction score: -0.0634
[31]
  interaction score: -2.01
[32]
  interaction score: -1.05
[33]
  interaction score: -0.674
[34]
  interaction score: -1.01
[35]
  interaction score: -2.05
[36]
  interaction score: 0.747
[37]
  interaction score: 0.276
[38]
  interaction score: -0.0547
[39]
  interaction score: 1.09
[40]
  interaction score: -0.543
[41]
  interaction score: -1.02
[42]
  interaction score: -0.896
[43]
  interaction score: -0.705
[44]
  interaction score: -0.0753
[45]
  interaction score: -0.363
[46]
  interaction score: -0.0402
[47]
  interaction score: -0.522
[48]
  interaction score: 0.118
[49]
  interaction score: -0.765
[50]
  interaction score: -1.2
[51]
  interaction score: -1.47
[52]
  interaction score: -1.16
[53]
  interaction score: 1.74
[54]
  interaction score: -1.25
[55]
  interaction score: -0.677
[56]
  interaction score: -2.22
[57]
  interaction score: -0.509
[58]
  interaction score: -0.576
[59]
  interaction score: -0.574
[60]
  interaction score: -0.22
[61]
  interaction score: -0.372
[62]
  interaction score: -0.717
[63]
  interaction score: -0.163
[64]
  interaction score: -0.686
[65]
  interaction score: -0.0748
[66]
  interaction score: -0.931
[67]
  interaction score: -0.336
[68]
  interaction score: -0.887
[69]
  interaction score: 1.86
